The values below come from patent US20240002497A1.

The target in test [1] is huNav1.7α + β1-β2-β3 (human Nav1.7α co-expressed with Navβ1, Navβ2 and Navβ3) (human) (UniProt Q15858). Briefly: FACS, CHO Flp-In cells; SD MFI 12. On the technique in general: Flow cytometry measures light scatter and fluorescence of single cells or particles in a stream.
The target of test [2] is huNav1.7α (human Nav1.7 alpha subunit, expressed without β subunits) (human) (UniProt Q15858). Briefly: FACS, HEK293 cells; SD MFI 2.
Test [3] addresses huNav1.7α + β1 (human Nav1.7α co-expressed with Navβ1) (human) (UniProt Q15858). Briefly: FACS, HEK293 cells; SD MFI 6.

Consider Negative control (Table 33), for which the Mean MFI in test [1] amounted to 566 MFI; in test [2], 723 MFI; in test [3], 778 MFI.
